Test results: patent US20240383982A1 (Genmab, published 2024)
Values belong to the binder of their own block, whether it stands above or below them.

Key:
[1] = target: T1, rabbit (Oryctolagus cuniculus) B7H4, full length, on HEK-293F cells (rabbit, UniProt Q7Z7D3 25-282 (human entry)); assay: flow cytometry, transiently transfected HEK-293F cells
T1 construct: Uniprot G1TQE8; also called rabbit B7H4
T1 chain: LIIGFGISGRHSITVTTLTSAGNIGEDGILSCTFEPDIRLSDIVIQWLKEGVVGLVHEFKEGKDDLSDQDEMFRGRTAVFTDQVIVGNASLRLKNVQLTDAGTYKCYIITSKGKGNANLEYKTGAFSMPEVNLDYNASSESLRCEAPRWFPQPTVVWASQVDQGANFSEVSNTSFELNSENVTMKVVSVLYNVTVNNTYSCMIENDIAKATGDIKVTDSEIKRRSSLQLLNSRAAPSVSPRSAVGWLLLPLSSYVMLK

[2] = target: T2, dog (Canis familiaris) B7H4, full length, on HEK-293F cells (dog, UniProt Q7Z7D3 25-282 (human entry)); assay: as above
T2 construct: Uniprot F1P8R9; also called dog B7H4
T2 chain: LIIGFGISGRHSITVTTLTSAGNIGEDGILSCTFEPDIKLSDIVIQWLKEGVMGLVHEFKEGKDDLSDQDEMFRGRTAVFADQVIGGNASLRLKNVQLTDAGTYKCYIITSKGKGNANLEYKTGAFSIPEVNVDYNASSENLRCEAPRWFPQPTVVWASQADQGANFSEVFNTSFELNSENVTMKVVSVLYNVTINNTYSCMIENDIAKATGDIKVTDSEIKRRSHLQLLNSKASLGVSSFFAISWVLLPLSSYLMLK

[3] = target: T3, human B7H4, full length, on cells (human, UniProt Q7Z7D3 25-282); assay: flow cytometry on NIH-OVCAR-3 tumor cells [panel NIH-Ovcar-3 cells]
T3 construct: Uniprot Q7Z7D3; Used for transfected HEK cells and for the B7H4-expressing human tumor cell lines (endogenous B7H4); also called VTCN1
T3 sequence: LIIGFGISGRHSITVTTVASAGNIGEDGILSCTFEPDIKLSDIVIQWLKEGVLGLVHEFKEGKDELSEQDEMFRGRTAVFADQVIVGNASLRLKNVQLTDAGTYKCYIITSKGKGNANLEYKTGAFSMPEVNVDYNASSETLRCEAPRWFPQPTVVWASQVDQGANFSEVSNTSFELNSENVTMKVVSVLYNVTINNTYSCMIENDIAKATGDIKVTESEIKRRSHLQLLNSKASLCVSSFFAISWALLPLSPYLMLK
Method: (§1) Cells (3×10⁴ cells/well) were incubated in polystyrene 96-well round-bottom plates (Greiner bio-one, cat. no. 650180) with serial dilutions of antibodies (ranging from 0.000458 to 30 μg/mL in 4-fold dilution steps) in 100 μL PBS/0.1% BSA/0.02% azide (staining buffer) at 4° C. for 30 min. Experiments were performed in technical duplicate. After washing twice in staining buffer, cells were incubated in 50 μL secondary antibody at 4° C. for 30 min. As a secondary antibody, R-Phycoerythrin (PE)-conjugated goat-anti-human IgG F(ab′)₂ (1:500 in FACS buffer; Jackson ImmunoResearch Laboratories, Inc., West Grove, PA, cat. no. 109-116-098), was used. Cells were washed twice in staining buffer, re-suspended in 30 μL FACS buffer containing Topro-3 (1:10,000 dilution) and analyzed on an iQue Screener (Intellicyt Corporation, USA). Binding curves were analyzed using non-linear regression (sigmoidal dose-response with variable slope) using GraphPad Prism V7.02 software (GraphPad Software, San Diego, CA, USA).
Binding was analyzed by flow cytometry as described above.

[4] = target: T2, dog (Canis familiaris) B7H4, full …; assay: flow cytometry, HEK-293F cells transiently transfected with dog B7H4, PE anti-human IgG F(ab')2 [panel Dog B7H4]
Method: as §1

[5] = target: T4, human recombinant His tagged B7H4 protein (Sino Biological cat. no. 10738-H08H) (human, UniProt Q7Z7D3 29-258); assay: BLI (Octet HTX); antibody on anti-human IgG Fc capture sensor, human B7H4 ECD-His in solution; 1st experiment
T4 construct: Bought protein; theoretical mass 26.8 kDa; also called human B7H4; human B7H4 extracellular domain
T4 sequence: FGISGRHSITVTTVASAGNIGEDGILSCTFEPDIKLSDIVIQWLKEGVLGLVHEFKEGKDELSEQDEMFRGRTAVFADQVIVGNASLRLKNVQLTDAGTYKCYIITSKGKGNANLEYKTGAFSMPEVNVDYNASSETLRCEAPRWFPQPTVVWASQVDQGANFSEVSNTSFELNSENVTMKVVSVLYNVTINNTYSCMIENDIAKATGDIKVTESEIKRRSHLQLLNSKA
Method: Target binding affinity of B7H4 antibodies was determined by label-free biolayer interferometry (BLI) on an Octet HTX instrument (FortéBio). Experiments were carried out while shaking at 1,000 RPM at 30° C. […] Anti-Human IgG Fc Capture (AHC) biosensors (FortéBio, cat. no. 18-5060) were pre-conditioned by exposure to 10 mM glycine (Sigma-Aldrich, cat. no. 15527) buffer pH 1.7 for 5 s, followed by neutralization in Sample Diluent (FortéBio, cat. no. 18-1048) for 5 s; both steps were repeated 2 times. Next, AHC sensors were loaded with antibody (1 μg/mL in Sample diluent) for 600 s. […] The theoretical molecular mass of human B7H4 and mouse B7H4 (as ECD-His tagged molecules) based on their amino acid sequences (26.8 kDa and 26.6 kDa respectively) were used for calculations. For each antibody a reference sensor was used, which was incubated with Sample Diluent instead of antigen. AHC sensors were regenerated by exposure to 10 mM glycine buffer pH 1.7 for 5 s, followed by neutralization in Sample Diluent for 5 s; both steps were repeated twice. Subsequently sensors were loaded again with antibody for the next cycle of kinetics measurements.
Data were acquired using Data Acquisition Software v9.0.0.49d (FortéBio) and analyzed with Data Analysis Software v9.0.0.12 (FortéBio). Data traces were corrected per antibody by subtraction of the reference sensor. The Y-axis was aligned to the last 10 s of the baseline, Interstep Correction alignment to dissociation and Savitzky-Golay filtering were applied. Data traces with a response<0.05 nm were excluded from analysis. The data was fitted with the 1:1 Global Full fit model using a window of interest for the association and dissociation times set at 300 s and 200 s respectively.

[6] = target: T3, human B7H4, full length, on cells; assay: flow cytometry, HEK-293F cells transfected with human B7H4 [panel Human B7H4]
Method: as §1

binding result [1]: binds
binding result [2]: binds
B1: IgG1-B7H4-C5-FEAR (antibody, V domains shown)
VH: QLQLQESGPGLVKPSETLSLTCTVSGGSIKSGSYYWGWIRQPPGKGLEWIGNIYYSGSTYYNPSLRSRVTISVDTSKNQFSLKLSSVTAADTAVYYCAREGSYPNQFDPWGQGTLVTVSS
VL: EIVMTQSPATLSVSPGERATLSCRASQSVSSNLAWYQQKPGQAPRLLIYGASTRATGIPARFSGSGSGTEFTLTISSLQSEDFAVYYCQQYHSFPFTFGGGTKVEIKR
notes: Full length IgG1 FEAR, kappa; variable domains from US20190085080A1

B2: bsIgG1-huCD3-H101G-FEALxB7H4-C1-N52S-FEAR (bispecific antibody)
heavy 1: not shown
light 1: not shown
heavy 2: QVQLQQWGAGLLKPSETLSLTCAVYGGSFSGYYWSWIRQPPGKGLEWIGEISHSGSTNYNPSLKSRVTISIDTSKNQFSLKLTSVTAADTAVFYCARGLFNWNFDSWGQGTLVTVSSASTKGPSVFPLAPSSKSTSGGTAALGCLVKDYFPEPVTVSWNSGALTSGVHTFPAVLQSSGLYSLSSVVTVPSSSLGTQTYICNVNHKPSNTKVDKRVEPKSCDKTHTCPPCPAPEFEGGPSVFLFPPKPKDTLMISRTPEVTCVVVAVSHEDPEVKFNWYVDGVEVHNAKTKPREEQYNSTYRVVSVLTVLHQDWLNGKEYKCKVSNKALPAPIEKTISKAKGQPREPQVYTLPPSREEMTKNQVSLTCLVKGFYPSDIAVEWESNGQPENNYKTTPPVLDSDGSFFLYSRLTVDKSRWQQGNVFSCSVMHEALHNHYTQKSLSLSPGK
light 2: DIQMTQSPSSLSASVGDRVTITCRASQGIRNDLGWYQQKPGKAPKRLIYGASSLQSGVPSRFSGSGSGTEFTLTISSLQPEDFATYYCLQHNSYPRTFGQGTTVEIKRTVAAPSVFIFPPSDEQLKSGTASVVCLLNNFYPREAKVQWKVDNALQSGNSQESVTEQDSKDSTYSLSSTLTLSKADYEKHKVYACEVTHQGLSSPVTKSFNRGEC
notes: also called bslgG1-huCD3-H101G-FEALxB7H4-C1-N52S-FEAR; BslgG1-huCD3-H101G-FEALxB7H4-C1-N52S-FEAR
EC50 (read off the curve) [3]: ~2 µg/mL
binding result [4]: binds

EC50 (read off the curve) [4]: ~0.3 µg/mL
Kd [5]: 57 nM
koff [5]: 0.0054 s⁻¹
kon [5]: 94000 M⁻¹ s⁻¹
EC50 (read off the curve) [6]: ~0.05 µg/mL
B3: IgG1-B7H4-C1-N52S-FEAR (antibody, V domains shown)
VH: QVQLQQWGAGLLKPSETLSLTCAVYGGSFSGYYWSWIRQPPGKGLEWIGEISHSGSTNYNPSLKSRVTISIDTSKNQFSLKLTSVTAADTAVFYCARGLFNWNFDSWGQGTLVTVSS
VL: DIQMTQSPSSLSASVGDRVTITCRASQGIRNDLGWYQQKPGKAPKRLIYGASSLQSGVPSRFSGSGSGTEFTLTISSLQPEDFATYYCLQHNSYPRTFGQGTTVEIKR
notes: Full length human IgG1 with L234F, L235E, D265A, K409R (FEAR) heavy chain constant region and kappa light chain; bivalent, monospecific; also called IgG1-B7H4-C1-052S-FEAR
